The results in this text go back to patent US20260007750A1.

One data set addresses Pak2 kinase (UniProt Q13177). Briefly: cell-based or functional assay.
Data set [1] concerns the target HIV-1 Nef protein (wild-type, HIV-1 Clade B).

As to “HIV-1 Nef protein (wild-type, HIV-1 Clade B)”, in the data set with Pak2 kinase, the phosphorylation of Pak2 at S55, quantitative phosphoproteomics of CAR T cells stimulated by NALM6 cells (Nef-WT compared to NefAxxA) (log2 fold change) was found to be 2.15 and the phosphorylation of Pak2 at S152, quantitative phosphoproteomics of CAR T cells stimulated by NALM6 cells (Nef-WT compared to NefAxxA) (log2 fold change) amounted to 1.17.

B1: Pak2 kinase (protein)
chain: SDNGELEDKPPAPPVRMSSTIFSTGGKDPLSANHSLKPLPSVPEEKKPRHKIISIFSGTEKGSKKKEKERPEISPPSDFEHTIHVGFDAVTGEFTGMPEQWARLLQTSNITKLEQKKNPQAVLDVLKFYDSNTVKQKYLSFTPPEKDGFPSGTPALNAKGTEAPAVVTEEEDDDEETAPPVIAPRPDHTKSIYTRSVIDPVPAPVGDSHVDGAAKSLDKQKKKTKMTDEEIMEKLRTIVSIGDPKKKYTRYEKIGQGASGTVFTATDVALGQEVAIKQINLQKQPKKELIINEILVMKELKNPNIVNFLDSYLVGDELFVVMEYLAGGSLTDVVTETCMDEAQIAAVCRECLQALEFLHANQVIHRDIKSDNVLLGMEGSVKLTDFGFCAQITPEQSKRSTMVGTPYWMAPEVVTRKAYGPKVDIWSLGIMAIEMVEGEPPYLNENPLRALYLIATNGTPELQNPEKLSPIFRDFLNRCLEMDVEKRGSAKELLQHPFLKLAKPLSSLTPLIMAAKEAMKSNR
As to B1, the “Pak2 phosphorylation by gel electrophoresis / Western blot” value in data set [1] was “Nef variants that promote CAR T cell activity in vivo (Nef WT, NefWP and NefD123G) but not NefAxxA expressing CARs also promoted Pak2 phosphorylation”; in the data set with NefD123G (Nef variant) it was “Nef variants that promote CAR T cell activity in vivo (Nef WT, NefWP and NefD123G) but not NefAxxA expressing CARs also promoted Pak2 phosphorylation”; with NefWP (Nef variant) it was “Nef variants that promote CAR T cell activity in vivo (Nef WT, NefWP and NefD123G) but not NefAxxA expressing CARs also promoted Pak2 phosphorylation”.
